In this data set the target is T1, BmFoxO (Bombyx mori, UniProt H9BVM3 1-512).
T1 sequence: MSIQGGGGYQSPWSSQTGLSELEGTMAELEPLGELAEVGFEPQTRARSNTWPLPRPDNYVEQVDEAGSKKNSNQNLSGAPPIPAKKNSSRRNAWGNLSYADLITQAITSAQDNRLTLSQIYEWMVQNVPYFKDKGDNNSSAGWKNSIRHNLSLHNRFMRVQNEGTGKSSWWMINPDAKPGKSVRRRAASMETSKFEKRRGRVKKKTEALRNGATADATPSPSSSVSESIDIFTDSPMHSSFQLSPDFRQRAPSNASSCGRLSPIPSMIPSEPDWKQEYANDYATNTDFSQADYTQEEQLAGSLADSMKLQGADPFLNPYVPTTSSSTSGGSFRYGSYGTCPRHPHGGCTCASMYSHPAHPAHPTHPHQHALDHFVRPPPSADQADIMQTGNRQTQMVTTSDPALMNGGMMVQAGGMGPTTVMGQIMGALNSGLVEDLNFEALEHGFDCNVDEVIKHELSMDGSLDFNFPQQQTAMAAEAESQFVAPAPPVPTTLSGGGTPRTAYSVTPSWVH
Nature of the data set: EMSA.

Experimental findings from article PMC11336091 are described below.

B1: BmOSER1 promoter EMSA probe (dsDNA)
DNA 1: TGTATTAAAAACTTATATAAACTGTGATCT
DNA 2: AGATCACAGTTTATATAAGTTTTTAATACA
Turning to B1, the binding result is “binds”.
